Key:
[1] = biological target: T1, Reb1 (Saccharomyces cerevisiae) (UniProt P21538); test: ensemble FRET
T1 sequence: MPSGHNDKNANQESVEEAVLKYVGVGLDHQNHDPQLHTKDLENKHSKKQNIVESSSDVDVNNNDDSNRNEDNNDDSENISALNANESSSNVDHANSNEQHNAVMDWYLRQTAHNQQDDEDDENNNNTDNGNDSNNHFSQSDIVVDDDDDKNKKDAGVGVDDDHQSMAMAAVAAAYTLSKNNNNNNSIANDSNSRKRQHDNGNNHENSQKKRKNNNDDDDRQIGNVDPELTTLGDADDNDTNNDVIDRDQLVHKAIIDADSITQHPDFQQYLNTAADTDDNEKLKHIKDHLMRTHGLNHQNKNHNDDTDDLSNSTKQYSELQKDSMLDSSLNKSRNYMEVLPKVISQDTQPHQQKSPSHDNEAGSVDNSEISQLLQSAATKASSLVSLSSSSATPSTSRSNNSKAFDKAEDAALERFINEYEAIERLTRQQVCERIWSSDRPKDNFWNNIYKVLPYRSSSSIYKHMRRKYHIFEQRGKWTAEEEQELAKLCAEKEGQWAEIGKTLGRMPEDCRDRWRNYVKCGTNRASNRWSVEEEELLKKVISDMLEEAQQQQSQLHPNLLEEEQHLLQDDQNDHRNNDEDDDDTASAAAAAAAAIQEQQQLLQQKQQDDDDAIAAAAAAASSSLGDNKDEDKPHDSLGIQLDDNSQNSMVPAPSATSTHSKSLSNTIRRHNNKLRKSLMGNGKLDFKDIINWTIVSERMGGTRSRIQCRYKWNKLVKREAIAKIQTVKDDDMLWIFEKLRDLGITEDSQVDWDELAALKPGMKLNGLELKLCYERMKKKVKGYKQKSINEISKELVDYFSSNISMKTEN

[2] = biological target: Cbf1 (Saccharomyces cerevisiae) (UniProt P17106); test: ensemble FRET
[3] = biological target: Cbf1 (Saccharomyces cerevisiae) (UniProt P17106); test: EMSA

UniProt P17106, sequence (P17106 whole entry): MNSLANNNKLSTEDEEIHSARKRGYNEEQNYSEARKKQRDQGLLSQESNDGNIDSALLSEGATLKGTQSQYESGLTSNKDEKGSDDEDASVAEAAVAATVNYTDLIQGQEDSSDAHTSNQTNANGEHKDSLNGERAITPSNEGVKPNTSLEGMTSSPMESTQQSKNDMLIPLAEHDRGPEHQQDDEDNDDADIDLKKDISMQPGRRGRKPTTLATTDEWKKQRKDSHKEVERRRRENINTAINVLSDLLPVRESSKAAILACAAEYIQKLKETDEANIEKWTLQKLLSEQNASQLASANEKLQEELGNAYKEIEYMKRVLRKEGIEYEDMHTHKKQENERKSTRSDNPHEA

Substance	K half [1] [nM]	K half [2] [nM]	K half [3] [nM]
601 Reb1p8 Cy3-proximal 207 bp nucleosome	0.75	–	–
GCTTTGAGGTCACGTGACCAACAGAAAGATGGAGGAGACCAATCAGTCAGTGAATCAGATGCTGATGAAGGCTGGGAAGATATTCCTGTCTACGTTAAAGCCTTTGCAGAGTTTGAATCAAAGAAAAGATTACAAAAAATTCGCCGACAGGAAGAAATAAAAAAGAGGACAGCTTTGGTTTGAAGCAAATATATATTATTGAAAAGC (double strand) [YNN1 Cbf1p8 nucleosome]	–	1.5	0.8
GCTTTGACCGGGTAACACGAACAGAAAGATGGAGGAGACCAATCAGTCAGTGAATCAGATGCTGATGAAGGCTGGGAAGATATTCCTGTCTACGTTAAAGCCTTTGCAGAGTTTGAATCAAAGAAAAGATTACAAAAAATTCGCCGACAGGAAGAAATAAAAAAGAGGACAGCTTTGGTTTGAAGCAAATATATATTATTGAAAAGC (double strand) [YNN1 Reb1p8 Cy3-proximal 207 bp nucleosome]	1.5	–	–
